US20160024196A1 (Amgen, published 2016)

Assays:
murine SFRP5 [1] = target: T1, murine SFRP5 (mouse, UniProt Q9WU66 22-314, limits assumed); experiment: kinetics; method not stated (Table 12, repeats Table 8)
T1 construct: also called mouse SFRP5; muSFRP5
T1 sequence: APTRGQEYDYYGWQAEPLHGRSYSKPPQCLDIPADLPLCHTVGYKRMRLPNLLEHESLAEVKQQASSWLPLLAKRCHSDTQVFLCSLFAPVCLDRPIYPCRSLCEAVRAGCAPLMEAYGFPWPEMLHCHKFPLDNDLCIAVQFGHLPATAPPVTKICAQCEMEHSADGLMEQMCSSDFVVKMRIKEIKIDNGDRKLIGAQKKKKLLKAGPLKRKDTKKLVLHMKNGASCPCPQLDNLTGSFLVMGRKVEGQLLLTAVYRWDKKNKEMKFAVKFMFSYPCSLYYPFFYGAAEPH

murine SFRP5 [2] = target: T1, murine SFRP5; experiment: kinetics; method and SFRP5 construct not stated (Table 8)

Kd (murine SFRP5 [1]): 658 pM | koff (murine SFRP5 [1]): 7.36e-05 s⁻¹ | kon (murine SFRP5 [1]): 112000 M⁻¹ s⁻¹ | Kd (murine SFRP5 [2]): 658 pM | koff (murine SFRP5 [2]): 7.36e-05 s⁻¹ | kon (murine SFRP5 [2]): 112000 M⁻¹ s⁻¹
B1: anti-SFRP5 monoclonal antibody subclone 24C18.3 (antibody, IgG2b, V domains shown)
VH: QVQLTQSGAELVRPGASVKLSCKASGYTFTDYYINWVKQRPGQGLEWIARIYPGSGNTYYNEKFKGKATLTAEKSSSTAYMQLSSLTSEDSAVYFCAAYSASAMDYWGQGTSVTVSS
VL: NVVLTQSPASLAVSLGQRATISCRASESVDSYGKSFMYWYQQKPGQPPKLLIYLANNLESGVPARFSGSGSRTDFTLTIDPVEADDAASYYCQQNNEDPWTFGGGTKLEIK
notes: also called mu24C18.3
